These results are taken from US20190211097A1.

The target in the assay is human CD32a (FcgammaRIIa) on washed human platelets (human) (UniProt P12318). The assay can be described thus: cell-based or functional assay.
human CD32a (FcgammaRIIa) on washed human platelets (human), sequence (P12318 34-317 limits assumed): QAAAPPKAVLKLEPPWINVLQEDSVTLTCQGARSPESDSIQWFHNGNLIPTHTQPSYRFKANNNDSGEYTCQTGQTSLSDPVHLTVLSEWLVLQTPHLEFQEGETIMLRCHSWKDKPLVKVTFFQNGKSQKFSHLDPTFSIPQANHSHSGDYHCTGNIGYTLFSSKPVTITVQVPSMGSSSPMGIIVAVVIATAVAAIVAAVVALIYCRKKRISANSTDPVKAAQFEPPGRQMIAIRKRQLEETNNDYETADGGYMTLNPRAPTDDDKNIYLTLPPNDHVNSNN

M90 anti-CD40L mAb + CD40L immune complex, sequence (P29965 113-261, one chain of several): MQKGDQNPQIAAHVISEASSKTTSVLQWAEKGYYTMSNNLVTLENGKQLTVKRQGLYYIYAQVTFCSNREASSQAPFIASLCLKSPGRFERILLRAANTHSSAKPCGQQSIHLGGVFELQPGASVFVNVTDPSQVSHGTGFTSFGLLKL
M90 anti-CD40L mAb + M91 anti-CD40L mAb + CD40L immune complex (a polyclonal immune complex), sequence (P29965 113-261, one chain of several): as above

“M90 anti-CD40L mAb + M91 anti-CD40L mAb + CD40L immune complex (a polyclonal immune complex) (from UniProt P29965 113-261)” showed a washed human platelet aggregation induced by the IC (IC concentration) of 1000 nM.

In the case of “effector-deficient humanized IV.3.1 IgG1 E269R mAb (antibody)”, the mAb concentration that blocked 250 nM HIT-like IC-induced platelet aggregation is 40 nM, the mAb concentration that blocked 500 nM M90+CD40L IC-induced platelet aggregation came out at 6 nM, the mAb concentration that blocked 1000 nM M90+M91+CD40L IC-induced platelet aggregation was 25 nM and the mAb concentration that blocked APS-like IC-induced platelet aggregation is 33 nM. The mAb concentration that did not inhibit 500 nM M90+CD40L IC-induced platelet aggregation amounted to 2 nM; the mAb concentration that inhibited 500 nM M90+CD40L IC-induced platelet aggregation came to 3 nM; the platelet activation by the combination of hIV.3.1 (25 nM), hAT-10 (90 nM) and MDE-8 (75 nM), all IgG1 E269R was found to be 25 nM; the platelet aggregation by the combination of hAT-10 (2 nM), hIV.3.1 (150 nM) and MDE-8 (150 nM), all IgG1 E269R came to 150 nM.

In turn, “M90 anti-CD40L mAb + CD40L immune complex (from UniProt P29965 113-261)” yielded a washed human platelet aggregation induced by the IC (IC concentration) of 250 nM.

Turning to “native chimeric IV.3 human IgG1 mAb (antibody)”, the mAb concentration needed to block 500 nM M90+CD40L IC-induced platelet aggregation is below 5 nM.

In turn, “deglycosylated native mouse IV.3 IgG2b mAb (antibody)” came in with a mAb concentration that blocked 250 nM M90+CD40L IC-induced platelet aggregation of 7 nM.
